Results: patent US10967068B2, “Stability-modulating linkers for use with antibody drug conjugates” (priority 2014, dated 2021)
*1 amine or outer side, *2 acyl side, *3 side chain or, on linkers, in order; H or OH if unused. Where a SMILES comes first, the peptide text is derived from it. [ ]: non-standard residue; d: D form. The star is where a group is joined. Dolaproine = CO[C@@H]([C@@H]1CCCN1)[C@@H](C)C(=O)O; Dil = CC[C@H](C)[C@H](NC)[C@@H](CC(=O)O)OC; PABC = O=C(OCc1ccc(N[*:1])cc1)[*:2]; Doe = c1ccc(C[C@H](N*)c2nccs2)cc1; Glyceroyl(2S) = O=C([C@@H](O)CO)*; Cit = NC(=O)NCCC[C@H](N)C(=O)O; Propanoyl(3-OH) = O=C(CCO)*; dLac = C[C@@H](O)C(=O)O; Lac = C[C@H](O)C(=O)O; Aib = CC(C)(N)C(=O)O; Ms = CS(=O)(=O)*

Test: In Vitro Stability Assay—Mouse Plasma
Assay type: in vitro ADME
Settings: for DAR: before plasma incubation
[1] = attachment position L11B, % DAR remaining after plasma 3 or 4.5 days

Protocol: 100-200 ug of ADC were incubated in mouse plasma (provided by Bioreclamation) supplemented with 1×PBS to the final ADC concentration of 0.125 mg/mL. Following incubation for 3-7 days, samples were diluted with an equal volume of 1×PBS, and ADCs were isolated using Trop2 antigen coupled to CNBr-activated Sepharose (GE Healthcare) using standard protocols. Drug-antibody ratios were assessed before and after in vitro exposure using HIC methods and mass spectrometry.
DAR values for conjugates purified after plasma incubation were compared to DAR values prior to plasma treatment.

| Compound | DAR after plasma incubation for 3 to 4.5 days (attachment position L11B) | Conjugate stability (%) [1] [%] | DAR (attachment position L11B) | DAR (Trop-2 antibody attachment position TG6, HIC or mass spectrometry) | Conjugate stability (%) (attachment position TG6, % DAR remaining after incubation in plasma for 3 or 4.5 days) | DAR after plasma incubation for 3 to 4.5 days (attachment position TG6, plasma species not printed in table (values match mouse plasma, Table 4)) |
| --- | --- | --- | --- | --- | --- | --- |
| CC[C@H](C)[C@@H]([C@@H](CC(=O)N1CCC[C@H]1[C@H](OC)[C@@H](C)C(=O)N[C@@H](Cc1ccccc1)c1nccs1)OC)N(C)C(=O)[C@@H](NC(=O)C(C)(C)NC(=O)OCc1ccc(NC(=O)[C@H](CCCNC(N)=O)NC(=O)[C@@H](NC(=O)[C@H](CCCCN)NC(=O)[C@@H](C)N)C(C)C)cc1)C(C)C [Example 35, D-alanyl-L-lysylvalyl-N-{4-[(8S,11S,12R)-11-[(2S)-butan-2-yl]-12-(2-{(2S)-2-[(1R,2R)-1-methoxy-2-methyl-3-oxo-3-{[(1S)-2-phenyl-1-(1,3-thiazol-2-yl)ethyl]amino}propyl]pyrrolidin-1-yl}-2-oxoethyl)-5,5,10-trimethyl-3,6,9-trioxo-8-(propan-2-yl)-2,13-dioxa-4,7,10-triazatetradec-1-yl]phenyl}-N˜5˜-carbamoyl-L-ornithinamide] (H-[dA]KV[Cit][PABC][Aib]V[Dil][Dolaproine]-Doe) | 1.07 | 58 | 1.82 | – | – | – |
| CC[C@H](C)[C@@H]([C@@H](CC(=O)N1CCC[C@H]1[C@H](OC)[C@@H](C)C(=O)N[C@@H](Cc1ccccc1)c1nccs1)OC)N(C)C(=O)[C@@H](NC(=O)C(C)(C)NC(=O)OCc1ccc(NC(=O)[C@H](CCCNC(N)=O)NC(=O)[C@@H](NC(=O)[C@H](CCCCN)NC(=O)CNC(C)=O)C(C)C)cc1)C(C)C [Example 37, N-acetylglycyl-L-lysyl-L-valyl-N-{4-[(8S,11S,12R)-11-[(2S)-butan-2-yl]-12-(2-{(2S)-2-[(1R,2R)-1-methoxy-2-methyl-3-oxo-3-{[(1S)-2-phenyl-1-(1,3-thiazol-2-yl)ethyl]amino}propyl]pyrrolidin-1-yl}-2-oxoethyl)-5,5,10-trimethyl-3,6,9-trioxo-8-(propan-2-yl)-2,13-dioxa-4,7,10-triazatetradec-1-yl]phenyl}-N˜5˜-carbamoyl-L-ornithinamide] (Ac-GKV[Cit][PABC][Aib]V[Dil][Dolaproine]-Doe) | 0.85 | 44 | 1.94 | – | – | – |
| CC[C@H](C)[C@@H]([C@@H](CC(=O)N1CCC[C@H]1[C@H](OC)[C@@H](C)C(=O)N[C@@H](Cc1ccccc1)c1nccs1)OC)N(C)C(=O)[C@@H](NC(=O)C(C)(C)NC(=O)OCc1ccc(NC(=O)[C@H](CCCNC(N)=O)NC(=O)[C@@H](NC(=O)[C@H](CCCCN)NC(=O)[C@@H](N)CO)C(C)C)cc1)C(C)C [Example 38, L-seryl-L-lysylvalyl-N-{4-[(8S,11S,12R)-11-[(2S)-butan-2-yl]-12-(2-{(2S)-2-[(1R,2R)-1-methoxy-2-methyl-3-oxo-3-{[(1S)-2-phenyl-1-(1,3-thiazol-2-yl)ethyl]amino}propyl]pyrrolidin-1-yl}-2-oxoethyl)-5,5,10-trimethyl-3,6,9-trioxo-8-(propan-2-yl)-2,13-dioxa-4,7,10-triazatetradec-1-yl]phenyl}-N˜5˜-carbamoyl-L-ornithinamide] (H-SKV[Cit][PABC][Aib]V[Dil][Dolaproine]-Doe) | 1.32 | 90 | 1.47 | – | – | – |
| CC[C@H](C)[C@@H]([C@@H](CC(=O)N1CCC[C@H]1[C@H](OC)[C@@H](C)C(=O)N[C@@H](Cc1ccccc1)c1nccs1)OC)N(C)C(=O)[C@@H](NC(=O)C(C)(C)NC(=O)OCc1ccc(NC(=O)[C@H](CCCNC(N)=O)NC(=O)[C@@H](NC(=O)[C@H](CCCCN)NC(=O)[C@H](N)CO)C(C)C)cc1)C(C)C [Example 39, D-seryl-L-lysylvalyl-N-{4-[(8S,11S,12R)-11-[(2S)-butan-2-yl]-12-(2-{(2S)-2-[(1R,2R)-1-methoxy-2-methyl-3-oxo-3-{[(1S)-2-phenyl-1-(1,3-thiazol-2-yl)ethyl]amino}propyl]pyrrolidin-1-yl}-2-oxoethyl)-5,5,10-trimethyl-3,6,9-trioxo-8-(propan-2-yl)-2,13-dioxa-4,7,10-triazatetradec-1-yl]phenyl}-N˜5˜-carbamoyl-L-ornithinamide] (H-[dS]KV[Cit][PABC][Aib]V[Dil][Dolaproine]-Doe) | 1.53 | 82 | 1.87 | – | – | – |
| CC[C@H](C)[C@@H]([C@@H](CC(=O)N1CCC[C@H]1[C@H](OC)[C@@H](C)C(=O)N[C@@H](Cc1ccccc1)c1nccs1)OC)N(C)C(=O)[C@@H](NC(=O)C(C)(C)NC(=O)OCc1ccc(NC(=O)[C@H](CCCNC(N)=O)NC(=O)[C@@H](NC(=O)[C@H](CCCCN)NC(=O)[C@H](C)O)C(C)C)cc1)C(C)C [Example 40, N˜2˜-[(2S)-2-hydroxypropanoyl]-L-lysylvalyl-N-{4-[(8S,11S,12R)-11-[(2S)-butan-2-yl]-12-(2-{(2S)-2-[(1R,2R)-1-methoxy-2-methyl-3-oxo-3-{[(1S)-2-phenyl-1-(1,3-thiazol-2-yl)ethyl]amino}propyl]pyrrolidin-1-yl}-2-oxoethyl)-5,5,10-trimethyl-3,6,9-trioxo-8-(propan-2-yl)-2,13-dioxa-4,7,10-triazatetradec-1-yl]phenyl}-N˜5˜-carbamoyl-L-ornithinamide] (H-[Lac]KV[Cit][PABC][Aib]V[Dil][Dolaproine]-Doe) | 1.08 | 58 | 1.87 | – | – | – |
| CC[C@H](C)[C@@H]([C@@H](CC(=O)N1CCC[C@H]1[C@H](OC)[C@@H](C)C(=O)N[C@@H](Cc1ccccc1)c1nccs1)OC)N(C)C(=O)[C@@H](NC(=O)C(C)(C)NC(=O)OCc1ccc(NC(=O)[C@H](CCCNC(N)=O)NC(=O)[C@@H](NC(=O)[C@H](CCCCN)NC(=O)[C@@H](C)O)C(C)C)cc1)C(C)C [Example 41, N˜2˜-[(2R)-2-hydroxypropanoyl]-L-lysylvalyl-N-{4-[(8S,11S,12R)-11-[(2S)-butan-2-yl]-12-(2-{(2S)-2-[(1R,2R)-1-methoxy-2-methyl-3-oxo-3-{[(1S)-2-phenyl-1-(1,3-thiazol-2-yl)ethyl]amino}propyl]pyrrolidin-1-yl}-2-oxoethyl)-5,5,10-trimethyl-3,6,9-trioxo-8-(propan-2-yl)-2,13-dioxa-4,7,10-triazatetradec-1-yl]phenyl}-N˜5˜-carbamoyl-L-ornithinamide] (H-[dLac]KV[Cit][PABC][Aib]V[Dil][Dolaproine]-Doe) | 0.91 | 49 | 1.86 | – | – | – |
| CC[C@H](C)[C@@H]([C@@H](CC(=O)N1CCC[C@H]1[C@H](OC)[C@@H](C)C(=O)N[C@@H](Cc1ccccc1)c1nccs1)OC)N(C)C(=O)[C@@H](NC(=O)C(C)(C)NC(=O)OCc1ccc(NC(=O)[C@H](CCCNC(N)=O)NC(=O)[C@@H](NC(=O)[C@H](CCCCN)NC(=O)[C@@H](O)CO)C(C)C)cc1)C(C)C [Example 42, N˜2˜-[(2S)-2,3-dihydroxypropanoyl]-L-lysylvalyl-N-{4-[(8S,11S,12R)-11-[(2S)-butan-2-yl]-12-(2-{(2S)-2-[(1R,2R)-1-methoxy-2-methyl-3-oxo-3-{[(1S)-2-phenyl-1-(1,3-thiazol-2-yl)ethyl]amino}propyl]pyrrolidin-1-yl}-2-oxoethyl)-5,5,10-trimethyl-3,6,9-trioxo-8-(propan-2-yl)-2,13-dioxa-4,7,10-triazatetradec-1-yl]phenyl}-N˜5˜-carbamoyl-L-ornithinamide] ({Glyceroyl(2S)}-KV[Cit][PABC][Aib]V[Dil][Dolaproine]-Doe) | 1.60 | 85 | 1.87 | – | – | – |
| CC[C@H](C)[C@@H]([C@@H](CC(=O)N1CCC[C@H]1[C@H](OC)[C@@H](C)C(=O)N[C@@H](Cc1ccccc1)c1nccs1)OC)N(C)C(=O)[C@@H](NC(=O)C(C)(C)NC(=O)OCc1ccc(NC(=O)[C@H](CCCNC(N)=O)NC(=O)[C@@H](NC(=O)[C@H](CCCCN)NC(=O)CCO)C(C)C)cc1)C(C)C [Example 43, N˜2˜-(3-hydroxypropanoyl)-L-lysylvalyl-N-{4-[(8S,11S,12R)-11-[(2S)-butan-2-yl]-12-(2-{(2S)-2-[(1R,2R)-1-methoxy-2-methyl-3-oxo-3-{[(1S)-2-phenyl-1-(1,3-thiazol-2-yl)ethyl]amino}propyl]pyrrolidin-1-yl}-2-oxoethyl)-5,5,10-trimethyl-3,6,9-trioxo-8-(propan-2-yl)-2,13-dioxa-4,7,10-triazatetradec-1-yl]phenyl}-N˜5˜-carbamoyl-L-ornithinamide] ({Propanoyl(3-OH)}-KV[Cit][PABC][Aib]V[Dil][Dolaproine]-Doe) | 1.23 | 76 | 1.62 | – | – | – |
| CC[C@H](C)[C@@H]([C@@H](CC(=O)N1CCC[C@H]1[C@H](OC)[C@@H](C)C(=O)N[C@@H](Cc1ccccc1)c1nccs1)OC)N(C)C(=O)[C@@H](NC(=O)C(C)(C)NC(=O)OCc1ccc(NC(=O)[C@H](CCCNC(N)=O)NC(=O)[C@@H](NC(=O)[C@H](CCCCN)NS(C)(=O)=O)C(C)C)cc1)C(C)C [Example 44, N˜2˜-(methylsulfonyl)lysyl-L-valyl-N-{4-[(8S,11S,12R)-11-[(2S)-butan-2-yl]-12-(2-{(2S)-2-[(1R,2R)-1-methoxy-2-methyl-3-oxo-3-{[(1S)-2-phenyl-1-(1,3-thiazol-2-yl)ethyl]amino}propyl]pyrrolidin-1-yl}-2-oxoethyl)-5,5,10-trimethyl-3,6,9-trioxo-8-(propan-2-yl)-2,13-dioxa-4,7,10-triazatetradec-1-yl]phenyl}-N˜5˜-carbamoylornithinamide] (Ms-KV[Cit][PABC][Aib]V[Dil][Dolaproine]-Doe) | 0.25 | 17 | 1.50 | 1.74 | 47 | 0.82 |
